Numbered stars: 1 amine (or outer) side, 2 acyl side, 3 side chain; on linkers, the order of the positions; unused ones are H or OH. Bridge positions count the residues as written; N and C are the ends. Ends that are not written are not given here. TBMB = c1c(C[*:1])cc(C[*:3])cc1C[*:2]
Key:
human plasma Kallikrein [1] = molecular target: T1, human plasma Kallikrein (human, UniProt P03952 20-638); experiment: phage binding assay
T1 construct: also called hPK; human PK

human plasma Kallikrein [2] = molecular target: T1, human plasma Kallikrein; experiment: phage binding assay; remark: listed apart in the source
Method: Library transformant colonies, or selection output colonies, were picked and grown as individual cultures in 2TY broth containing selective antibiotic. The picked colonies were DNA-sequenced using a QIAgen PyroMark Q96 DNA sequencer to reveal the amino-acid substitution present in each clone, and were assayed for human plasma Kallikrein binding as follows. The phage-containing supernatant was harvested from the culture and phage were cyclised with tris bromomethyl benzene (TBMB) based on the methods of Heinis et al (Nature Chemical Biology vol. 5 pp 502-507 (2009)). The purified phage from this process were assayed for binding to biotinylated human plasma Kallikrein using a homogeneous plate-based binding assay; assay read-out measured on a BMG Labtech Pherastar FS plate reader. The quantitative binding data from duplicate assay samples was averaged (mean) and expressed as signal:background. […] The assay data was correlated with the peptide sequences.
Selections against human plasma Kallikrein were performed at a variety of stringencies (see Phage selections' in Methods above). All output sequences were identified and analysed for target binding (see ‘Randomisation of peptide domains—Assay of binding of individual clones’ in Methods above). Table 17 lists each unique sequence, its relative abundance in the selection output (frequency), and a rank number according to target binding strength.

T1 sequence (P03952 20-638 limits assumed): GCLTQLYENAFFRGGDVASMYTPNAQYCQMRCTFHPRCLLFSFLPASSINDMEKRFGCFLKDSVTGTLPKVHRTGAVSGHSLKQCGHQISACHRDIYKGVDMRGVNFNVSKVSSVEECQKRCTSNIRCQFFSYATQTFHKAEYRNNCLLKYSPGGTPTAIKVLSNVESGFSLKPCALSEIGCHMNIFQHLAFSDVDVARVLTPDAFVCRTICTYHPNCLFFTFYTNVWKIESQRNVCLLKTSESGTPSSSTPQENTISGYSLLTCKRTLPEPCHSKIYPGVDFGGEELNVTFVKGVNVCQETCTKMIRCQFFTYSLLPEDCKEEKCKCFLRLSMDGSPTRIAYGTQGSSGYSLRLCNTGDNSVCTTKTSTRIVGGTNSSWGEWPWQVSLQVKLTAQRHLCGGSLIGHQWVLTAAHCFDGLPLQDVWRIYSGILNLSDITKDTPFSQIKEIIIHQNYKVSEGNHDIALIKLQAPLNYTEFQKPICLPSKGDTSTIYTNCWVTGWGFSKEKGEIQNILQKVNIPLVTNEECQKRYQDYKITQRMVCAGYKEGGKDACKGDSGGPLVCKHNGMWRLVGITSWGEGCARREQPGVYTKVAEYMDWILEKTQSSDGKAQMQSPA

| Binder | BINDING ASSAY SIGNAL (human plasma Kallikrein [1]) | RANK (Kallikrein binding) (human plasma Kallikrein [2]) |
| --- | --- | --- |
| CSWPARCVHQDMC (linker 1-7-13 via TBMB, on phage) | 61 | – |
| CTWPARCLHQHMC (linker 1-7-13 via TBMB, on phage) | 61 | – |
| CTWPARCTHQAFC (linker 1-7-13 via TBMB, on phage) | 59 | – |
| CRFPFKCTHQDLC (linker 1-7-13 via TBMB (inferred), on phage) | – | 11 |
| CSFPYRCTHQDLC (linker 1-7-13 via TBMB (inferred), on phage) | – | 5 |
| CSFPWRCTHQDLC (linker 1-7-13 via TBMB (inferred), on phage) | – | 23 |
| CSFPFWCTHQDLC (linker 1-7-13 via TBMB (inferred), on phage) | – | 34 |
| CSMPYRCTHQDLC (linker 1-7-13 via TBMB, on phage) | – | 31 |
| CSFPFKCTHQDLC (linker 1-7-13 via TBMB (inferred), on phage) | – | 6 |
| CSHPYRCTHQDLC (linker 1-7-13 via TBMB (inferred), on phage) | – | 8 |
| CSLPIRCTHQDLC (linker 1-7-13 via TBMB, on phage) | – | 30 |
| CSIPFKCTHQDLC (linker 1-7-13 via TBMB (inferred), on phage) | – | 32 |
| CSHPFRCTHQDLC (linker 1-7-13 via TBMB (inferred), on phage) | – | 9 |
| CSFLYKCTHQDLC (linker 1-7-13 via TBMB (inferred), on phage) | – | 29 |
| CSFMYKCTHQDLC (linker 1-7-13 via TBMB (inferred), on phage) | – | 37 |
| CSFPYKCTHQDLC (linker 1-7-13 via TBMB (inferred), on phage) | – | 22 |
| CSFPIRCTHQDLC (linker 1-7-13 via TBMB (inferred), on phage) | – | 15 |
| CSFSYKCTHQDLC (linker 1-7-13 via TBMB (inferred), on phage) | – | 35 |
| CAWPARCTHQTMC (linker 1-7-13 via TBMB, on phage) | 61 | – |
| CSWPARCTHAEMC (linker 1-7-13 via TBMB, on phage) | 59 | – |
